Data reported in PMC5577609.

Experiments:
[1] = target: HRL40-1 (isolectin of Halimeda renschii lectin HRL40) (Halimeda renschii); assay: LC-ESI-MS of the intact and of the reduced, S-pyridylethylated protein; LTQ Orbitrap XL; intact isolectin against the subunit mass derived after reduction with tri-n-butylphosphine and alkylation with 4-vinylpyridine
[2] = target: Halimeda renschii lectin HRL40 (Halimeda renschii); assay: SDS-PAGE, non-reducing and reducing; 12% gel; samples heated at 100 C in 0.2% SDS with or without 2% 2-mercaptoethanol; about 40 kDa non-reduced, 10 kDa reduced
[3] = target: influenza virus envelope glycoprotein hemagglutinin (influenza virus (strain not stated for the immobilised hemagglutinin)); assay: SPR; Biacore X100; […], HBS-N (10 mM HEPES, 150 mM NaCl, pH 7.4); […], dissociation 600 s; Langmuir 1:1 fit

Substance	stoichiometry N [1]	stoichiometry N [2]	Ka [3]	Kd [3]	koff [3]	kon [3]
HRL40-1 (isolectin of Halimeda renschii lectin HRL40) (natural protein)	4	–	–	–	–	–
Halimeda renschii lectin HRL40 (natural protein)	–	4	2.71e+10 M⁻¹	0.0369 nM	2.63e-06 s⁻¹	71400 M⁻¹ s⁻¹
